For experiment [1], the system named is BMP12. As to the kind of experiment: BMP activity luciferase reporter assay (BRE-luciferase, ID1 promoter) in C2C12 cells. It counts as cell-based, mouse. Particulars: 50 ng/ml hBMP12, 16 h; 500 ng/ml. The procedure: C2C12 cells were plated in 96-well plates when they reached confluency, cells were treated in triplicate with 25 ng/ml of BMP9, 50 ng/ml of BMP10 or 50 ng/ml of BMP12 (all from R&D Systems), for 16 hours. VHHs or Noggin were added at a concentration of 5 ug/ml. C2C12 cells or HEK293 were plated on 12-well plates and starved for 5 hours, before stimulation with 2 ng/ml of TGF-β (R&D Systems) or 100 ng/ml Activin-A (R&D Systems), respectively. VHHs at the indicated concentrations were added at the same time. After 1 hour cells were lysed, and protein isolation and SDS-PAGE separation were performed as described previously. For protein detection the following antibodies were used: antiphospho-SMAD2 at 1:1000 (Cell Signaling).
C2C12 cells were cultured in 96-well plates at 5×10^3 cells/well. After overnight attachment cells were stimulated with 10 ng/ml hBMP4 (Cat No. 314-BP-020; R&D Systems), 50 ng/ml hBMP2 (Cat No. 355-BM-010; R&D Systems), 200 ng/ml hBMP5 (Cat No. 615-BMC-020; R&D Systems), 50 ng/ml hBMP6 (Cat No. 506-BP-020; R&D Systems), 200 ng/ml hBMP7 (Cat No. 354-BP-010; R&D Systems), 25 ng/ml hBMP9 (Cat No. 3209-BP-010; R&D Systems), 25 ng/ml hBMP10 (Cat No. 2926-BP-025; R&D Systems), 50 ng/ml hBMP12 (Cat No. 779-G7-010; R&D Systems) and with or without VHH antibodies: C4C4 and C8C8 at 500 ng/ml; natural antagonist: mNoggin (Cat No. 1967-NG-025; R&D Systems), hNoggin (Cat No. 6057-NG; R&D Systems) and mGremlin (cat#956-GR-050; R&D Systems) at 500 ng/ml; chemical antagonist: 0.5 μM LDN-193189 (Cat No. 11802; Cayman Chemical) and 0.2 μM DMH1 (Cat No. 57146; Selleckchem).
On the technique in general: A reporter such as luciferase makes a cellular process visible.

For experiment [2], the target named is T1, BMP2 (human).
T1 chain: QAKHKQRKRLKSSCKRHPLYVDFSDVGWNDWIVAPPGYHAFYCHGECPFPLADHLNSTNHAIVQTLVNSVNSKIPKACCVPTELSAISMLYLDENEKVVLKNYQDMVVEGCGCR
The experiment in a line: SPR. (SPR reads the build-up and loss of mass on a sensor chip optically.)

The target of experiment [3] is T2, BMP4 (human).
T2 chain: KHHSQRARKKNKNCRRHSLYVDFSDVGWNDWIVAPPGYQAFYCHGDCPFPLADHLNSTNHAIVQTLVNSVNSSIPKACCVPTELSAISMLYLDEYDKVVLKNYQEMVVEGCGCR
The experiment in a line: SPR.

Experiment [4] concerns the target T3, BMP2 (Homo sapiens, UniProt P12643).
T3 sequence (P12643 283-396): T1 chain
As to the kind of experiment: Phosphorylation of SMAD1/5/8 in EPC2-hTERT cells (western blot). As to conditions: 100 ng/ml BMP2, 4 hours; indicated concentrations. It counts as cell-based. Here is the method: To detect phosphorylation of SMAD1/5/8 in vitro, EPC2-hTERTs were cultured in 24-well plates and activated with 100 ng/ml of BMP2, BMP4, BMP5, BMP6 or BMP7 (R&D Systems) for 4 hours with or without VHH at the indicated concentrations. After activation, each well was washed twice with ice-cold PBS and lysed with 100 μl M-PER lysis buffer (Sigma-Aldrich, MO, United States) containing Halt Protease and Phosphatase Inhibitor Cocktail (Thermo Scientific, Landsmeer, The Netherlands). Cell debris were pelleted and supernatant was collected. 15 μg of protein was then separated by 10% SDS-PAGE and transferred onto a PVDF membrane (Millipore, Amsterdam, The Netherlands). The blots were then blocked with 5% milk in Tris-buffered saline supplemented with 0.1% Tween-20 (TBST) for 1 hour at room temperature and washed in TBST before overnight incubation at 4° C. with antiphospho-SMAD1/5/8 (Cell Signalling), anti-βactin (Santa Cruz) or anti-GAPDH (Millipore) in 5% Bovine Serum Albumin (BSA). Blots were then washed with TBST and incubated for 1 hour at room temperature in 1:2000 horseradish peroxidase—conjugated secondary antibody in TBST. After a final wash with TBST, blots were incubated for 5 minutes in LumiGlow (BIOKE, Leiden, The Netherlands) and then chemiluminescence was detected using a Fuji LAS4000 illuminator (Fujifilm Medical Systems, Stamford, Conn.). Protein was quantitated with Image). […]

Experiment [5] has as its target T4, BMP5 (Homo sapiens, UniProt P22003).
T4 sequence (P22003 317-454): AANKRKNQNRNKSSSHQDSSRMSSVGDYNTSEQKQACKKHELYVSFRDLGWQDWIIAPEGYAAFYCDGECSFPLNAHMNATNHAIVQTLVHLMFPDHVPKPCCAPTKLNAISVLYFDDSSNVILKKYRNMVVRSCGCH
As to the kind of experiment: BMP specificity of VHH antibodies (summary of binding and inhibition of BMP function). More on the design: key: ●▪: Binding and inhibition of BMP function.; ●□: Binding, but no inhibition.; ○: No binding. Particulars: summary of SPR and functional experiments. From the text: (§1) Thus, we have generated several VH Hs that can be classified into four groups (Table 3): BMP4, BMP2/4, BMP2/4/5 and BMP2/4/5/6-specific.

Experiment [6] deals with T5, BMP7 (Homo sapiens, UniProt P18075).
T5 sequence (P18075 293-431): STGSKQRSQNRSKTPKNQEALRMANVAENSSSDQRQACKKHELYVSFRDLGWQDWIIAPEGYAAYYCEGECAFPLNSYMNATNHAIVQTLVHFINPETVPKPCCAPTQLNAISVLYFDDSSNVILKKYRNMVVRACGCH
The description is as above. Set-up: key: ●▪: Binding and inhibition of BMP function.; ●□: Binding, but no inhibition.; ○: No binding. As to conditions: summary of SPR and functional experiments.
Text: as §1

Experiment [7] deals with T3, BMP2. The description is as above. More on the design: key: ●▪: Binding and inhibition of BMP function.; ●□: Binding, but no inhibition.; ○: No binding. As to conditions: summary of SPR and functional experiments.
Text: as §1

Experiment [8] addresses T6, BMP6 (Homo sapiens, UniProt P22004).
T6 sequence (P22004 375-513): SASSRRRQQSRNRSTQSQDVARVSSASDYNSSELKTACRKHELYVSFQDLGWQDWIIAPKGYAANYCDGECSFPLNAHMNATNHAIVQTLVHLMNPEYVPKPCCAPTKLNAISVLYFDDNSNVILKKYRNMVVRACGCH
Described as above. Particulars: summary of SPR and functional experiments. Set-up: key: ●▪: Binding and inhibition of BMP function.; ●□: Binding, but no inhibition.; ○: No binding.
Text: as §1

B1: hNoggin (protein)
chain: QHYLHIRPAPSDNLPLVDLIEHPDPIFDPKEKDLNETLLRSLLGGHYDPGFMATSPPEDRPGGGGGAAGGAEDLAELDQLLRQRPSGAMPSEIKGLEFSEGLAQGKKQRLSKKLRRKLQMWLWSQTFCPVLYAWNDLGSRFWPRYVKVGSCFSKRSCSVPEGMVCKPSKSVHLTVLRWRCQRRGGQRCGWIPIQYPIISECKCSC
What is called Kd is a measure of binding affinity in units of concentration. For B1, the “inhibition of BMP12 signals, comparison of inhibitors” value in experiment [1] is given as “inhibited”. Also, the results for the equilibrium dissociation constant (Kd) in experiment [2] and in experiment [3] were 0.961 nM and 0.091 nM, respectively.

B2: C8E7: E7 linked to C8, hetero-dimer VHH bihead (protein)
chain: EVQLVESGGGLVQAGGSLRLSCAASGRTFRINDMGWYRQAPGKSRDMVARITSGGNTNYADSVKGRFTISRDNAKNTVYLQMNSLKPEDTAVYYCNADGLRFDSTRYRPFDSWGQGTQVTVSSGGGGSGGGGSEVQLVESGGGLVQAGGSLRLSCAASGSIRGFVAMAWYRQAPGKQREWVATVTNGGTLYGDSVKGRFTGSRDNAKNTVYLQMNSLKPEDTAVYYCALRQIGASGYDYWGQGTQVTVSS
With B2, the “inhibition of BMP2 signaling (pSMAD1/5/8), dimer compared to monomer” value in experiment [4] was “better at inhibiting both BMP2 and BMP4 as compared to the E7 monomer”. Moreover, the “BMP5: binding and inhibition of BMP function” value in experiment [5] was “●▪”. Besides, in experiment [6], the “BMP7: binding and inhibition of BMP function” value is given as “●□”. Also, in experiment [7], the “BMP2: binding and inhibition of BMP function” value is on record as “●▪”. Moreover, the “BMP6: binding and inhibition of BMP function” value in experiment [8] is reported as “●□”.

The values are drawn from patent US10280218B2, “Antibodies binding to BMP4, and uses thereof” (ACADEMISCH MEDISCH CENTRUM, priority 2014, dated 2019).
